The text below walks through data of IntAct's records for PubMed 16357825.

To fix the notation:
B1: Retinal rod rhodopsin-sensitive cGMP 3',5'-cyclic phosphodiesterase subunit gamma (Homo sapiens), P18545 (parent)
chain: MNLEPPKAEFRSATRVAGGPVTPRKGPPKFKQRQTRQFKSKPPKKGVQGFGDDIPGMEGLGTDITVICPWEAFNHLELHELAQYGII
partner: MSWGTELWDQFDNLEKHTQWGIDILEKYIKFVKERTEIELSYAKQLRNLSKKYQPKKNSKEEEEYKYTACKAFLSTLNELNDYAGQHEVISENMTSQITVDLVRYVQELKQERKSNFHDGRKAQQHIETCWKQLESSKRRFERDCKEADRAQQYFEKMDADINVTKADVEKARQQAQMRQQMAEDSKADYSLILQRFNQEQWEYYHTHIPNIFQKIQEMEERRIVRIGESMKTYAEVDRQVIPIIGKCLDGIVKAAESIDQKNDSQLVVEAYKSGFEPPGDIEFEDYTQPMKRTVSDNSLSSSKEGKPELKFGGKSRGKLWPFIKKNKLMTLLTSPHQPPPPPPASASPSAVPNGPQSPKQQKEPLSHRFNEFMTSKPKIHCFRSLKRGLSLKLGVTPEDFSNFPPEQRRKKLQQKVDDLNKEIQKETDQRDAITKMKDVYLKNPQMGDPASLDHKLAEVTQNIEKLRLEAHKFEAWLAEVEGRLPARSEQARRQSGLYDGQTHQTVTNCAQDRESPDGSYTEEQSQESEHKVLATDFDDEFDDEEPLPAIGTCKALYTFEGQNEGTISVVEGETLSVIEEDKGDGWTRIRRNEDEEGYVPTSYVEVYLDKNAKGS
B2: Retinal rod rhodopsin-sensitive cGMP 3',5'-cyclic phosphodiesterase subunit gamma (Homo sapiens), P18545 (parent)
chain: B1 chain

In the assay “fnbp1_rat Fnbp1, Q8R511” the parent is B1. The conditions noted are these: with fnbp1_rat Fnbp1, Q8R511.
Variants of B2 are the subject of assay [1]. The conditions noted are these: with pacn2_rat Pacsin2, Q9QY17.
In the assay “grb2_rat Grb2, P62994” the parent is B2. Particulars: with grb2_rat Grb2, P62994.
In the assay “src_rat Src, Q9WUD9” the parent is B2. Particulars: with src_rat Src.

P23A: in the assay with fnbp1_rat Fnbp1, Q8R511, the “effect of a mutation on the interaction” value is “disrupting interaction”.
As to P20A, the “effect of a mutation on the interaction” value in the assay with fnbp1_rat Fnbp1, Q8R511 was “disrupting interaction”.
For P20A, the “effect of a mutation on the interaction” value in assay [1] was “decreasing interaction”; with grb2_rat Grb2, P62994 it was “decreasing interaction”; in the assay with src_rat Src, Q9WUD9 it was “disrupting interaction”.
As for P23A, the “effect of a mutation on the interaction” value is reported as “decreasing interaction” in assay [1]; “decreasing interaction” in the assay with grb2_rat Grb2, P62994; “disrupting interaction” with src_rat Src, Q9WUD9.
